Experimental data from patent US20160355591A1.
Values belong to the substance of their own block, whether it stands above or below them.

Assays:
[1] = molecular target: T1, CD20 on human cells (human) (UniProt P11836); test: 697 (ALL) cells; no mAb 4.9
T1 sequence (looked up): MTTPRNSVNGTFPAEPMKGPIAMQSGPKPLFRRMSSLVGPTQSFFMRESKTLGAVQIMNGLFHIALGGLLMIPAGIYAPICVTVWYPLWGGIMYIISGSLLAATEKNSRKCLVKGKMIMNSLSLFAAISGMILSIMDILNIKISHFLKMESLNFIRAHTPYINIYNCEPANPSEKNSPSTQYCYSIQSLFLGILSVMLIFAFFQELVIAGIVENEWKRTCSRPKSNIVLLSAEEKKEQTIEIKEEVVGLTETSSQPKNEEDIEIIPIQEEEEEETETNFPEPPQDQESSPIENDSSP

[2] = molecular target: T1, CD20 on human cells (human); test: REH (ALL) cells; no mAb 3.9
[3] = molecular target: T1, CD20 on human cells (human); test: K562 (CML) cells; no mAb 3.2
[4] = molecular target: T1, CD20 on human cells (human); test: MN60 (ALL) cells; no mAb 8.1
[5] = molecular target: T1, CD20 on human cells (human); test: WAC (CLL) cells; no mAb 15.8
[6] = molecular target: T1, CD20 on human cells (human); test: MEC-1 (CLL) cells; no mAb 4.7
[7] = molecular target: T1, CD20 on human cells (human); test: GDM-1 (AML) cells; no mAb 16.8
[8] = molecular target: T1, CD20 on human cells (human); test: RS4;11 (ALL) cells; no mAb 6.4
[9] = molecular target: T1, CD20 on human cells (human); test: Jeko-1 (MCL) cells; no mAb 14.3
[10] = molecular target: T1, CD20 on human cells (human); test: Kasumi-3 (AML) cells; no mAb 9.6
[11] = molecular target: T1, CD20 on human cells (human); test: Kasumi-1 (AML) cells; no mAb 18.2
[12] = molecular target: T1, CD20 on human cells (human); test: Granta-519 (MCL) cells; no mAb 15.3
[13] = molecular target: T1, CD20 on human cells (human); test: HC-1 (hairy cell leukemia) cells; no mAb 4.8
[14] = molecular target: T2, CD20 on dog lymphocytes and dog lymphoma cells (dog) (UniProt Q3C2E2); test: flow cytometry, dog lymphoma aspirate; none 3.37
T2 sequence (looked up): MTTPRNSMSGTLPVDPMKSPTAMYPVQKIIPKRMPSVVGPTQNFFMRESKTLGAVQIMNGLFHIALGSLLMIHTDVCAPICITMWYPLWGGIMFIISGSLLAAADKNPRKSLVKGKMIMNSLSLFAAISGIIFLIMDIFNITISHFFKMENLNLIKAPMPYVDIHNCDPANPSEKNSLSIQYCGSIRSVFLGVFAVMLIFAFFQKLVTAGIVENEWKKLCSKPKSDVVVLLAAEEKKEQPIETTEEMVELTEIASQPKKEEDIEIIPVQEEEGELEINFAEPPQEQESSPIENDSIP

[15] = molecular target: T2, CD20 on dog lymphocytes and dog lymphoma cells (dog); test: flow cytometry, dog lymphoma aspirate; none 3.85
[16] = molecular target: T2, CD20 on dog lymphocytes and dog lymphoma cells (dog); test: flow cytometry, canine lymphoma aspirate 150836; none 3.4
[17] = molecular target: T2, CD20 on dog lymphocytes and dog lymphoma cells (dog); test: flow cytometry, canine lymphoma aspirate 150836; none 3.9
[18] = molecular target: T2, CD20 on dog lymphocytes and dog lymphoma cells (dog); test: flow cytometry on tumor aspirates from dogs with lymphoma
[19] = molecular target: T1, CD20 on human cells (human); test: indirect flow cytometry, Namalwa cells, FITC-GAM 2nd Ab; none 2.91
[20] = molecular target: HLA-DR (human leukocyte antigen-DR) on human lymphoma and leukemia cells and human lymphocytes (human); test: 697 (ALL) cells; no mAb 4.9; isotype control
[21] = molecular target: HLA-DR (human leukocyte antigen-DR) on human lymphoma and leukemia cells and human lymphocytes (human); test: REH (ALL) cells; no mAb 3.9; isotype control
[22] = molecular target: HLA-DR (human leukocyte antigen-DR) on human lymphoma and leukemia cells and human lymphocytes (human); test: K562 (CML) cells; no mAb 3.2; isotype control
[23] = molecular target: HLA-DR (human leukocyte antigen-DR) on human lymphoma and leukemia cells and human lymphocytes (human); test: MN60 (ALL) cells; no mAb 8.1; isotype control
[24] = molecular target: HLA-DR (human leukocyte antigen-DR) on human lymphoma and leukemia cells and human lymphocytes (human); test: WAC (CLL) cells; no mAb 15.8; isotype control
[25] = molecular target: HLA-DR (human leukocyte antigen-DR) on human lymphoma and leukemia cells and human lymphocytes (human); test: MEC-1 (CLL) cells; no mAb 4.7; isotype control
[26] = molecular target: HLA-DR (human leukocyte antigen-DR) on human lymphoma and leukemia cells and human lymphocytes (human); test: GDM-1 (AML) cells; no mAb 16.8; isotype control
[27] = molecular target: HLA-DR (human leukocyte antigen-DR) on human lymphoma and leukemia cells and human lymphocytes (human); test: RS4;11 (ALL) cells; no mAb 6.4; isotype control
[28] = molecular target: HLA-DR (human leukocyte antigen-DR) on human lymphoma and leukemia cells and human lymphocytes (human); test: Jeko-1 (MCL) cells; no mAb 14.3; isotype control
[29] = molecular target: HLA-DR (human leukocyte antigen-DR) on human lymphoma and leukemia cells and human lymphocytes (human); test: Kasumi-3 (AML) cells; no mAb 9.6; isotype control
[30] = molecular target: HLA-DR (human leukocyte antigen-DR) on human lymphoma and leukemia cells and human lymphocytes (human); test: Kasumi-1 (AML) cells; no mAb 18.2; isotype control
[31] = molecular target: HLA-DR (human leukocyte antigen-DR) on human lymphoma and leukemia cells and human lymphocytes (human); test: Granta-519 (MCL) cells; no mAb 15.3; isotype control
[32] = molecular target: HLA-DR (human leukocyte antigen-DR) on human lymphoma and leukemia cells and human lymphocytes (human); test: HC-1 (hairy cell leukemia) cells; no mAb 4.8; isotype control
[33] = molecular target: HLA-DR (L243 antigen) on canine lymphocytes and canine lymphoma cells (dog); test: flow cytometry, dog lymphoma aspirate; none 3.37; control antibody
[34] = molecular target: HLA-DR (L243 antigen) on canine lymphocytes and canine lymphoma cells (dog); test: flow cytometry, dog lymphoma aspirate; none 3.85; control antibody
[35] = molecular target: HLA-DR (L243 antigen) on canine lymphocytes and canine lymphoma cells (dog); test: flow cytometry, canine lymphoma aspirate 150836; none 3.4; control antibody
[36] = molecular target: HLA-DR (L243 antigen) on canine lymphocytes and canine lymphoma cells (dog); test: flow cytometry, canine lymphoma aspirate 150836; none 3.9; control antibody
[37] = molecular target: HLA-DR (human leukocyte antigen-DR) on human lymphoma and leukemia cells and human lymphocytes (human); test: indirect flow cytometry, Namalwa cells, FITC-GAM 2nd Ab; none 2.91; control antibody
[38] = molecular target: CD22 on human cells (human) (UniProt P20273); test: 697 (ALL) cells; no mAb 4.9
[39] = molecular target: CD22 on human cells (human) (UniProt P20273); test: REH (ALL) cells; no mAb 3.9
[40] = molecular target: CD22 on human cells (human) (UniProt P20273); test: K562 (CML) cells; no mAb 3.2
[41] = molecular target: CD22 on human cells (human) (UniProt P20273); test: MN60 (ALL) cells; no mAb 8.1
[42] = molecular target: CD22 on human cells (human) (UniProt P20273); test: WAC (CLL) cells; no mAb 15.8
[43] = molecular target: CD22 on human cells (human) (UniProt P20273); test: MEC-1 (CLL) cells; no mAb 4.7
[44] = molecular target: CD22 on human cells (human) (UniProt P20273); test: GDM-1 (AML) cells; no mAb 16.8
[45] = molecular target: CD22 on human cells (human) (UniProt P20273); test: RS4;11 (ALL) cells; no mAb 6.4
[46] = molecular target: CD22 on human cells (human) (UniProt P20273); test: Jeko-1 (MCL) cells; no mAb 14.3
[47] = molecular target: CD22 on human cells (human) (UniProt P20273); test: Kasumi-3 (AML) cells; no mAb 9.6
[48] = molecular target: CD22 on human cells (human) (UniProt P20273); test: Kasumi-1 (AML) cells; no mAb 18.2
[49] = molecular target: CD22 on human cells (human) (UniProt P20273); test: Granta-519 (MCL) cells; no mAb 15.3
[50] = molecular target: CD22 on human cells (human) (UniProt P20273); test: HC-1 (hairy cell leukemia) cells; no mAb 4.8
[51] = molecular target: CD22 on dog lymphocytes and dog lymphoma cells (dog); test: flow cytometry, dog lymphoma aspirate; none 3.37
[52] = molecular target: CD22 on dog lymphocytes and dog lymphoma cells (dog); test: flow cytometry, dog lymphoma aspirate; none 3.85
[53] = molecular target: CD22 on dog lymphocytes and dog lymphoma cells (dog); test: flow cytometry, canine lymphoma aspirate 150836; none 3.4
[54] = molecular target: CD22 on dog lymphocytes and dog lymphoma cells (dog); test: flow cytometry, canine lymphoma aspirate 150836; none 3.9
[55] = molecular target: CD22 on human cells (human) (UniProt P20273); test: indirect flow cytometry, Namalwa cells, FITC-GAM 2nd Ab; none 2.91
[56] = molecular target: HLA-DR (human leukocyte antigen-DR) on human lymphoma and leukemia cells and human lymphocytes (human); test: indirect flow cytometry, Namalwa cells, FITC-GAM 2nd Ab; none 2.91; antibody of irrelevant specificity
[57] = molecular target: Fcγ-receptor on effector cells; test: cell-based or functional assay
[58] = molecular target: CD22 on dog lymphocytes and dog lymphoma cells (dog); test: flow cytometry, dog lymphoma aspirate; none 3.24
[59] = molecular target: CD22 on dog lymphocytes and dog lymphoma cells (dog); test: flow cytometry, dog lymphoma aspirate; none 4.48
[60] = molecular target: CD22 on dog lymphocytes and dog lymphoma cells (dog); test: flow cytometry, canine lymphoma aspirate 150836; none 3.2
[61] = molecular target: CD22 on dog lymphocytes and dog lymphoma cells (dog); test: flow cytometry, canine lymphoma aspirate 150836; none 4.5
[62] = molecular target: HLA-DR (human leukocyte antigen-DR) on human lymphoma and leukemia cells and human lymphocytes (human); test: indirect flow cytometry, Namalwa cells, FITC-GAH 2nd Ab; none 2.52; antibody of irrelevant specificity (anti-EGP-1)

- specific lysis of Daudi target cells (ADCC), corrected for the effect on effector cells [57]: 48%
Substance: hL243 (humanized L243 anti-HLA-DR antibody, IgG1/K isotype)

- specific lysis of Daudi target cells (ADCC), corrected for the effect on effector cells [57]: 12%
Substance: hL243γ4P (IMMU-114; humanized L243, IgG4/K isotype with Ser241Pro hinge mutation) (antibody)

- mean FL [58]: 3.37
- % Positive [59]: 4.85%
- mean FL [60]: 3.4
- % Positive [61]: 4.9%
Substance: hLL2 (epratuzumab, humanized anti-CD22) (antibody)

The next lines start with the substance.

Substance: 2B8 (murine anti-human CD20 mAb) (antibody)
- mean FL [1]: 6.9
- mean FL [2]: 23.5
- mean FL [3]: 4.3
- mean FL [4]: 162
- mean FL [5]: 275
- mean FL [6]: 175
- mean FL [7]: 15.6
- mean FL [8]: 11.5
- mean FL [9]: 455
- mean FL [10]: 11
- mean FL [11]: 14.5
- mean FL [12]: 677
- mean FL [13]: 42.2
- mean FL [14]: 3.11
- % Positive [15]: 2.61%
- mean FL [16]: 3.1
- % Positive [17]: 2.6%
- positive samples (of 21 samples) [18]: 5
- strongly positive samples (of 21 samples) [18]: 3
- geometric mean fluorescence [19]: 6.16

Substance: Ag8 (P3x63 Ag8, murine myeloma derived mAb, isotype control) (antibody)
- mean FL [20]: 5.6
- mean FL [21]: 3.9
- mean FL [22]: 4.1
- mean FL [23]: 10.5
- mean FL [24]: 14.4
- mean FL [25]: 6
- mean FL [26]: 20.1
- mean FL [27]: 8.6
- mean FL [28]: 17.4
- mean FL [29]: 15.7
- mean FL [30]: 17
- mean FL [31]: 16.9
- mean FL [32]: 3.5
- mean FL [33]: 3.04
- % Positive [34]: 2.81%
- mean FL [35]: 3
- % Positive [36]: 2.8%
- geometric mean fluorescence [37]: 3.64

Substance: LL2 (murine anti-human CD22 mAb) (antibody)
- mean FL [38]: 15.9
- mean FL [39]: 16.8
- mean FL [40]: 4.3
- mean FL [41]: 17.1
- mean FL [42]: 20.1
- mean FL [43]: 49
- mean FL [44]: 28.5
- mean FL [45]: 20.9
- mean FL [46]: 25
- mean FL [47]: 13.9
- mean FL [48]: 20.9
- mean FL [49]: 28.6
- mean FL [50]: 17.8
- mean FL [51]: 3.73
- % Positive [52]: 5.05%
- mean FL [53]: 3.7
- % Positive [54]: 5.1%
- geometric mean fluorescence [55]: 10.5

Substance: RS7 (murine mAb) (antibody)
- geometric mean fluorescence [56]: 3.39

Substance: hRS7 (humanized anti-EGP-1 antibody)
- geometric mean fluorescence [62]: 2.47
